{
  "source": "patent US20240002531A1",
  "about": "(ONO PHARMACEUTICAL, published 2024)",
  "key": {"[1]": {"target": "T1, P606A peptide (HER2 603-622 with P606A) (human)", "T1 peptide": "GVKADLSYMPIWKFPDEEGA", "assay": "SPR Biacore, mAb on chip, peptide analyte, 1:1 fit;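 further: where kon or koff could not be resolved by kinetic fitting, Kd comes instead from steady-state equilibrium analysis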"}, "[2]": {"target": "T2, E619A peptide (HER2 603-622 with E619A) (human)", "T2 peptide": "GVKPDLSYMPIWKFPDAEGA", "assay": "SPR Biacore, mAb on chip, peptide analyte, 1:1 fit"}, "[3]": {"target": "T3, Y610A peptide (HER2 603-622 with Y610A) (human)", "T3 peptide": "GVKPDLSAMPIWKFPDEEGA", "assay": "SPR Biacore, mAb on chip, peptide analyte, 1:1 fit"}, "[4]": {"target": "T4, P617A peptide (HER2 603-622 with P617A) (human)", "T4 peptide": "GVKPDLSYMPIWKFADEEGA", "assay": "SPR Biacore, mAb on chip, peptide analyte, 1:1 fit"}, "[5]": {"target": "T5, A622G peptide (HER2 603-622 with A622G) (human)", "T5 peptide": "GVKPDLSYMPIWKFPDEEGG", "assay": "SPR Biacore, mAb on chip, peptide analyte, 1:1 fit"}, "[6]": {"target": "T6, D618A peptide (HER2 603-622 with D618A) (human)", "T6 peptide": "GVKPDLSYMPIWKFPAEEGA", "assay": "SPR Biacore, mAb on chip, peptide analyte, 1:1 fit"}, "[7]": {"target": "T7, K605A peptide (HER2 603-622 with K605A) (human)", "T7 peptide": "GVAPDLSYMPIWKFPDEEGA", "assay": "SPR Biacore, mAb on chip, peptide analyte, 1:1 fit"}, "[8]": {"target": "T8, V604A peptide (HER2 603-622 with V604A) (human)", "T8 peptide": "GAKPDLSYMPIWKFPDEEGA", "assay": "SPR Biacore, mAb on chip, peptide analyte, 1:1 fit"}, "[9]": {"target": "T9, P612A peptide (HER2 603-622 with P612A) (human)", "T9 peptide": "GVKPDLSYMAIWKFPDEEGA", "assay": "SPR Biacore, mAb on chip, peptide analyte, 1:1 fit"}, "[10]": {"target": "T10, S609A peptide (HER2 603-622 with S609A) (human)", "T10 peptide": "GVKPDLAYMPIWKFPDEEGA", "assay": "SPR Biacore, mAb on chip, peptide analyte, 1:1 fit"}, "[11]": {"target": "T11, L608A peptide (HER2 603-622 with L608A) (human)", "T11 peptide": "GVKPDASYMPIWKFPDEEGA", "assay": "SPR Biacore, mAb on chip, peptide analyte, 1:1 fit"}, "[12]": {"target": "T12, E620A peptide (HER2 603-622 with E620A) (human)", "T12 peptide": "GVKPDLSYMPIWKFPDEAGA", "assay": "SPR Biacore, mAb on chip, peptide analyte, 1:1 fit"}, "[13]": {"target": "T13, I613A peptide (HER2 603-622 with I613A) (human)", "T13 construct": "also called 1613A", "T13 peptide": "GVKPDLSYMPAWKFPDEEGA", "assay": "SPR Biacore, mAb on chip, peptide analyte, 1:1 fit"}, "[14]": {"target": "T14, M611A peptide (HER2 603-622 with M611A) (human)", "T14 peptide": "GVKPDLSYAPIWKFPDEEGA", "assay": "SPR Biacore, mAb on chip, peptide analyte, 1:1 fit"}, "[15]": {"target": "T15, D607A peptide (HER2 603-622 with D607A) (human)", "T15 peptide": "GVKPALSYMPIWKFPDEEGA", "assay": "SPR Biacore, mAb on chip, peptide analyte, 1:1 fit"}, "[16]": {"target": "T16, HER2-W614A expressed on CHO-K1 cells (human, UniProt P04626 23-1255)", "T16 construct": "also called W614A point mutant; not shown: PA tag at the N terminus; RAP tag and MAP tag at the C terminus", "assay": "flow cytometry on CHO-K1 cells expressing the point mutant"}, "[17]": {"target": "T17, HER2-F616A expressed on CHO-K1 cells (human, UniProt P04626 23-1255)", "T17 construct": "also called F616A point mutant; not shown: PA tag at the N terminus; RAP tag and MAP tag at the C terminus", "assay": "flow cytometry on CHO-K1 cells expressing HER2-F616A"}, "[18]": {"target": "T18, W614A peptide (HER2 603-622 with W614A) (human)", "T18 peptide": "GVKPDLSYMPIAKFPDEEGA", "assay": "SPR Biacore, mAb on chip, peptide analyte (ka N.D.)"}, "[19]": {"target": "T19, HER2 peptide 613-632 (amino acids 613 to 632 of human HER2) (human)", "T19 construct": "Synthetic peptide", "T19 peptide": "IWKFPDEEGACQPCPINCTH", "assay": "ELISA, peptide coated at 10 µg/ml, antibody 10 µg/ml"}, "[20]": {"target": "T20, HER2 peptide p613-622 (human)", "T20 peptide": "IWKFPDEEGA", "assay": "SPR Biacore, mAb on chip, peptide analyte, equilibrium analysis"}, "[21]": {"target": "T21, HER2 peptide p614-621 (human)", "T21 peptide": "WKFPDEEG", "assay": "SPR Biacore, mAb on chip, peptide analyte, equilibrium analysis"}, "[22]": {"target": "T22, HER2-K615A expressed on CHO-K1 cells (human, UniProt P04626 23-1255)", "T22 construct": "also called K615A point mutant; not shown: PA tag at the N terminus; RAP tag and MAP tag at the C terminus", "assay": "flow cytometry on CHO-K1 cells expressing the point mutant"}, "[23]": {"target": "T17, HER2-F616A expressed on CHO-K1 cells", "assay": "flow cytometry on CHO-K1 cells expressing the point mutant"}},
  "data": [
    {"binder": "H2Mab-250 antibody (antibody, V domains shown, Mouse monoclonal from a hybridoma (immunogen HER2ec made in LN229 cells); also called antibody of the present invention) VH: EVQLVESGGGLVQPGGSLKLSCAASGFTFSNYGMSWVRQTPDRRLELVATINNNGGGTYYPDSVKGRFTISRDNAKNTLYLQMSSLKSEDTAMYYCTSPGLLWDAWGAGTTVTVSS VL: not shown", "values": [
      {"measurement": "Kd", "setting": "[1]", "result": 5.34, "unit": "nM"},
      {"measurement": "koff", "setting": "[1]", "result": 0.000393, "unit": "s⁻¹"},
      {"measurement": "kon", "setting": "[1]", "result": 73600, "unit": "M⁻¹ s⁻¹"},
      {"measurement": "Kd", "setting": "[2]", "result": 6.29, "unit": "nM"},
      {"measurement": "koff", "setting": "[2]", "result": 0.000465, "unit": "s⁻¹"},
      {"measurement": "kon", "setting": "[2]", "result": 73900, "unit": "M⁻¹ s⁻¹"},
      {"measurement": "Kd", "setting": "[3]", "result": 7.9, "unit": "nM"},
      {"measurement": "koff", "setting": "[3]", "result": 0.000451, "unit": "s⁻¹"},
      {"measurement": "kon", "setting": "[3]", "result": 57100, "unit": "M⁻¹ s⁻¹"},
      {"measurement": "Kd", "setting": "[4]", "result": 207, "unit": "nM"},
      {"measurement": "koff", "setting": "[4]", "result": 0.00914, "unit": "s⁻¹"},
      {"measurement": "kon", "setting": "[4]", "result": 44100, "unit": "M⁻¹ s⁻¹"},
      {"measurement": "Kd", "setting": "[5]", "result": 6.87, "unit": "nM"},
      {"measurement": "koff", "setting": "[5]", "result": 0.000453, "unit": "s⁻¹"},
      {"measurement": "kon", "setting": "[5]", "result": 65900, "unit": "M⁻¹ s⁻¹"},
      {"measurement": "Kd", "setting": "[6]", "result": 5.8, "unit": "nM"},
      {"measurement": "koff", "setting": "[6]", "result": 0.000432, "unit": "s⁻¹"},
      {"measurement": "kon", "setting": "[6]", "result": 74500, "unit": "M⁻¹ s⁻¹"},
      {"measurement": "Kd", "setting": "[7]", "result": 6.45, "unit": "nM"},
      {"measurement": "koff", "setting": "[7]", "result": 0.000346, "unit": "s⁻¹"},
      {"measurement": "kon", "setting": "[7]", "result": 53600, "unit": "M⁻¹ s⁻¹"},
      {"measurement": "Kd", "setting": "[8]", "result": 6.54, "unit": "nM"},
      {"measurement": "koff", "setting": "[8]", "result": 0.000399, "unit": "s⁻¹"},
      {"measurement": "kon", "setting": "[8]", "result": 61000, "unit": "M⁻¹ s⁻¹"},
      {"measurement": "Kd", "setting": "[9]", "result": 9.54, "unit": "nM"},
      {"measurement": "koff", "setting": "[9]", "result": 0.000609, "unit": "s⁻¹"},
      {"measurement": "kon", "setting": "[9]", "result": 63800, "unit": "M⁻¹ s⁻¹"},
      {"measurement": "Kd", "setting": "[10]", "result": 6.51, "unit": "nM"},
      {"measurement": "koff", "setting": "[10]", "result": 0.000394, "unit": "s⁻¹"},
      {"measurement": "kon", "setting": "[10]", "result": 60600, "unit": "M⁻¹ s⁻¹"},
      {"measurement": "Kd", "setting": "[11]", "result": 8.79, "unit": "nM"},
      {"measurement": "koff", "setting": "[11]", "result": 0.000431, "unit": "s⁻¹"},
      {"measurement": "kon", "setting": "[11]", "result": 49100, "unit": "M⁻¹ s⁻¹"},
      {"measurement": "Kd", "setting": "[12]", "result": 7.98, "unit": "nM"},
      {"measurement": "koff", "setting": "[12]", "result": 0.000455, "unit": "s⁻¹"},
      {"measurement": "kon", "setting": "[12]", "result": 57100, "unit": "M⁻¹ s⁻¹"},
      {"measurement": "Kd", "setting": "[13]", "result": 93.9, "unit": "nM"},
      {"measurement": "koff", "setting": "[13]", "result": 0.00828, "unit": "s⁻¹"},
      {"measurement": "kon", "setting": "[13]", "result": 88400, "unit": "M⁻¹ s⁻¹"},
      {"measurement": "Kd", "setting": "[14]", "result": 7.45, "unit": "nM"},
      {"measurement": "koff", "setting": "[14]", "result": 0.000445, "unit": "s⁻¹"},
      {"measurement": "kon", "setting": "[14]", "result": 59700, "unit": "M⁻¹ s⁻¹"},
      {"measurement": "Kd", "setting": "[15]", "result": 7.06, "unit": "nM"},
      {"measurement": "koff", "setting": "[15]", "result": 0.00052, "unit": "s⁻¹"},
      {"measurement": "kon", "setting": "[15]", "result": 73600, "unit": "M⁻¹ s⁻¹"},
      {"measurement": "binding result", "setting": "[16]", "result": "no binding (tested: 10 g/mL (so in the source))"},
      {"measurement": "binding result", "setting": "[17]", "result": "binds"},
      {"measurement": "koff", "setting": "[18]", "result": 0.00438, "unit": "s⁻¹"},
      {"measurement": "binding result", "setting": "[19]", "result": "binds"}
    ]},
    {"binder": "H2Mab-214 antibody (antibody, V domains shown, Mouse monoclonal from a hybridoma (immunogen HER2ec made in LN229 cells); also called antibody of the present invention) VH: QVTLKESGPGILQPSQTLSLTCSFSGFSLSTSGMGVSWIRQPSGKGLEWLAHIFWDDDKRYNPSLKSRLTISKDTSRNKVFLKITSVDTADTATYYCARRVVATDWYFDVWGAGTTVTVSS VL: DIVLTQSPASLAVSLGQRATISCRASESVEYYGTTLMQWYQQKPGQPPKLLIYAASKVESGVPARFSGSGSGTDFSLNIHPVEEDDVAMYFCQQSRKVPLTFGAGTKLELKR", "values": [
      {"measurement": "Kd", "setting": "[20]", "result": 127000, "unit": "nM"},
      {"measurement": "Kd", "setting": "[21]", "result": 229000, "unit": "nM"},
      {"measurement": "binding result", "setting": "[22]", "result": "no binding (tested: 10 g/mL (so in the source))"},
      {"measurement": "binding result", "setting": "[23]", "result": "no binding (tested: 10 g/mL (so in the source))"},
      {"measurement": "binding result", "setting": "[19]", "result": "binds"}
    ]}
  ]
}
